# Experimental data from IntAct's records for PubMed 18309292.
# B1: Ras-related protein Rap-1b (Homo sapiens), P61224 (parent)
# chain: MREYKLVVLGSGGVGKSALTVQFVQGIFVEKYDPTIEDSYRKQVEVDAQQCMLEILDTAGTEQFTAMRDLYMKNGQGFALVYSITAQSTFNDLQDLREQILRVKDTDDVPMILVGNKCDLEDERVVGKEQGQNLARQWNNCAFLESSAKSKINVNEIFYDLVRQINRKTPVPGKARKKSSCQLL
# Variants of: B1
# Details: with rpgp1_human RAP1GAP
row,Variant,effect of a mutation on the interaction
1,F64A,disrupting interaction

# Variants of: B1
# Details: with rpgp1_human RAP1GAP
# Remark: another data set of the same source
row,Variant,effect of a mutation on the interaction
1,Q63E,disrupting interaction
